Experimental data as given in US20160311886A1, “Constructs Binding to Phosphatidylserine and Their Use in Disease Treatment and Imaging” (Board of Regents, The University of Texas System, priority 2005, published 2016).

Tests used:
[1] = system: cancer patients having progressive disease; settings: human, in vivo; cited from earlier work
[2] = in vivo; cited from earlier work
[3] = system: ABAE cells with exposed PS; assay: Binding of monomeric and dimeric hβ2GPI to LPC-treated cells; assay type: cell-based, bovine; settings: 200 μM LPC, DMEM+10% FBS
Procedure: FIG. 24A, FIG. 24B, FIG. 24C and FIG. 24D. An artificial dimeric β2GPI construct binds endothelial cells with exposed PS. ABAE cells were incubated for 30 min with 200 μM LPC in DMEM+10% FBS plus purified hβ2GPI-monomer (FIG. 24A), hβ2GPI-dimer (FIG. 24B), or a mutant hβ2GPI-dimer unable to bind lipid (FIG. 24C). Cells were then washed and incubated with anti-β2GPI to detect hβ2GPI monomers and dimers. […] Cells were then washed, fixed and stained with fluorescent markers. The cytoskeleton appears red, nuclei appear blue, and hβ2GPI-monomers and hβ2GPI-dimers appear green. FIG. 24D, the binding area of hβ2GPI-monomers and hβ2GPI-dimers was quantified using MetaVue software. All values are relative to the binding of hβ2GPI-dimers to non-LPC treated cells, which was set to one.
In these studies, an artificial β2GPI dimer is used, which was generated by fusing hβ2GPI to the C-terminus of the apple 4 dimerization domain of factor XI (Lutters et al., 2001). […] Nonetheless, binding of this dimer to cells with exposed PS validates the use of Fc-β2GPI dimers to bind to PS-positive cells.
ABAE cells were treated with LPC to induce PS exposure and incubated with purified hβ2GPI, hβ2GPI-dimer, or a mutant hβ2GPI-dimer containing a disrupted lipid binding domain. As expected, binding of the monomeric hβ2GPI to LPC-treated ABAE cells was negligible (FIG. 24A).

[4] = system: ABAE cells with exposed PS; assay: Live-cell binding assay on LPC-treated endothelial cells; assay type: cell-based, bovine
Procedure: Adult bovine aortic endothelial (ABAE) cells were maintained in DMEM supplemented with 10% FBS and 2 mM L-glutamine. ABAE cells were removed from subconfluent cultures by brief exposure to 0.25% trypsin/0.02% EDTA, and 8-well chamber slides were seeded with 2×10^4 cells/well. Following overnight culture, cells were washed gently with PBS and treated with 200 μM lysophosphatidylcholine (LPC) to induce PS exposure.
PS exposure was determined by immunofluorescence staining. Cells were washed thoroughly in PBS, fixed in 4% paraformaldehyde (w/v), and incubated with a biotin-conjugated anti-mouse secondary antibody. Next, cells were incubated with FITC-conjugated streptavidin (Jackson Immunoresearch) to detect antibody binding. Cells were then permeablized with 0.1% Triton-X100 in PBS and counterstained with Texas Red-conjugated phalloidin (Molecular Probes, Eugene, Oreg.), and 4′, 6-diamidino-2-phenylindole (DAPI; Molecular Probes). Images were captured using a Coolsnap digital camera (Photometrics, Tucson, Ariz.) mounted on a Nikon microscope and processed with MetaVue software (Universal Imaging Corporation, Downingtown, Pa.).
The area of antibody binding was determined using MetaVue image analysis software, which is able to quantify the number of illuminated pixels in an image. Images of FITC fluorescence were used to quantify antibody binding. Corresponding images of DAPI fluorescence were used to normalize the FITC images for the number of cells present in the field. A small FITC/DAPI ratio indicates a small antibody binding area, whereas a large FITC/DAPI ratio indicates a large binding area. The FITC/DAPI ratios were used to determine increases or decreases in antibody binding area relative to a basal amount of antibody binding under the selected conditions. Five images at 200× magnification were used for each analysis. Data are presented as average relative FITC/DAPI ratios with error bars representing the standard deviation.
Cells were then washed, fixed, and stained with fluorescent markers to visualize binding of antibody to the cell surface.

[5] = Fc-mβ2GPI binding to PS-coated plates; settings: cell culture supernatants #8 and #18
Procedure: FIG. 20. Fc-mβ2GPI binds PS on PS-coated plates. In this binding assay, a microtiter plate was coated with PS and blocked with 1% OVA. Serial dilutions of Fc-mβ2GPI cell culture supernatants were performed in 1% OVA. #8 and #18 are two different clones of Fc-mβ2GPI. Binding was detected with anti-mouse IgG-HRP.
Fc-mβ2GPI was able to bind to PS on PS-coated plates.

[6] = system: ABAE cells; assay: Fc-mβ2GPI binding to cells with exposed PS; assay type: cell-based, bovine
Procedure: FIG. 22A, FIG. 22B and FIG. 22C. Fc-mβ2GPI detects PS exposed on naturally apoptotic ABAE cells. 2×10^4 ABAE cells were seeded onto 8-well glass chamber slides in DMEM+10% FBS overnight at 37° C. The next day, cells were washed and incubated with 2aG4 (FIG. 22A), supernatant from Fc-mβ2GPI transfected CHO cells (FIG. 22B), or mock transfected cells (“control supernatant”, FIG. 22C). 2aG4 and Fc-mβ2GPI were detected with a FITC-labeled secondary antibody (green). The cytoskeletons and nuclei were counter-stained with Texas Red-labeled phalloidin and DAPI (blue), respectively. Arrows highlight apoptotic cells.
FIG. 23A and FIG. 23B. Fc-mβ2GPI detects PS exposed on LPC-treated ABAE cells. 2×10^4 ABAE cells were seeded onto 8-well glass chamber slides in DMEM+10% FBS overnight at 37° C. The next day, cells were washed and incubated supernatant from Fc-mβ2GPI transfected CHO cells. Fc-mβ2GPI was detected with a FITC-labeled secondary antibody (green). The cytoskeletons and nuclei were counter-stained with Texas Red-labeled phalloidin and DAPI (blue), respectively. FIG. 23A and FIG. 23B each depict binding of Fc-mβ2GPI, seen as small pinpoints of green staining.

[7] = Fc-mβ2GPI binding to phospholipids in 10% FBS
Procedure: FIG. 21. Fc-mβ2GPI binds anionic phospholipids. This assay measures Fc-mβ2GPI binding to phospholipids in 10% FBS. The microtiter plates were coated with various lipids, as indicated, and blocked with 1% OVA. Serial dilutions of Fc-mβ2GPI cell culture supernatant were performed in 1% OVA. Binding was detected with anti-mouse IgG-HRP.

## NC(=O)c1nnn(Cc2cc(Cl)c(C(=O)c3ccc(Cl)cc3)c(Cl)c2)c1N [CAI, carboxyamidotriazole]
[1]
  patients with disease stabilization: 49%

## monophosphoryl lipid A [MPL]
[2]
  dose shown to be safe for human use: 100 μg/m^2

B1: hβ2GPI: Human β2GPI purified from human plasma (protein)
chain: GRTCPKPDDLPFSTVVPLKTFYEPGEEITYSCKPGYVSRGGMRKFICPLTGLWPINTLKCTPRVCPFAGILENGAVRYTTFEYPNTISFSCNTGFYLNGADSAKCTEEGKWSPELPVCAPIICPPPSIPTFATLRVYKPSAGNNSLYRDTAVFECLPQHAMFGNDTITCTTHGNWTKLPECREVKCPFPSRPDNGFVNYPAKPTLYYKDKATFGCHDGYSLDGPEEIECTKLGNWSAMPSCKASCKLPVKKATVVYQGERVKIQEKFKNGMLHGDKVSFFCKNKEKKCSYTEDAQCIDGTIEVPKCFKEHSSLAFWKTDASDVKPC
[3]
  binding to LPC-treated ABAE cells: negligible
[4]; 2 μg/ml, LPC
  mediation of ch3G4 binding to ABAE cells with exposed PS: able to mediate binding
[4]; 10% MS and LPC, absence of ch3G4
  binding to endothelial cells with exposed PS: does not bind endothelial cells with exposed PS in the absence of ch3G4

B2: Fc-mβ2GPI: Fc region of mouse IgG2a attached to full length mouse β2GPI (domains I-V); SEQ ID NO:19 (protein, listed as Mus musculus)
chain: EPRGPTIKPCPPCKCPAPNLLGGPSVFIFPPKIKDVLMISLSPIVTCVVVDVSEDDPDVQISWFVNNVEVHTAQTQTHREDYNSTLRVVSALPIQHQDWMSGKEFKCKVNNKDLPAPIERTISKPKGSVRAPQVYVLPPPEEEMTKKQVTLTCMVTDFMPEDIYVEWTNNGKTELNYKNTEPVLDSDGSYFMYSKLRVEKKNWVERNSYSCSVVHEGLHNHHTTKSFSRTPGKTGGRICPKPDDLPFATVVPLKTSYDPGEQIVYSCKPGYVSRGGMRRFTCPLTGMWPINTLRCVPRVCPFAGILENGIVRYTSFEYPKNISFACNPGFFLNGTSSSKCTEEGKWSPDIPACARITCPPPPVPKFALLKDYRPSAGNNSLYQDTVVFKCLPHFAMIGNDTVMCTEQGNWTRLPECLEVKCPFPPRPENGYVNYPAKPVLLYKDKATFGCHETYKLDGPEEAECTKTRTWSFLPTCRESCKLPVKKATVLYQGMRVKIQEQFKNGMMHGDKIHFYCKNKEKKCSYTVEAHCRDGTIEIPSCFKEHSSLAFWKTDASELTPC
[5]
  binding to PS on PS-coated plates: bind to PS in a concentration-dependent manner
[6]
  binding to LPC-treated ABAE cells: bind to PS exposed at the cell surface
  staining of naturally apoptotic ABAE cells: stain the apoptotic cells
[7]
  binding to phospholipids: binds to the anionic phospholipids PS, PA, PI and PG, but not to the neutral lipids, PC and SM
